The target in experiment [1] is T1, PCPE-1 (Procollagen C-proteinase enhancer-1) glycoprotein, human (human, UniProt Q15113 26-449).
T1 construct: mature; Secreted recombinant protein; also called purified human PCPE-1
T1 sequence (looked up): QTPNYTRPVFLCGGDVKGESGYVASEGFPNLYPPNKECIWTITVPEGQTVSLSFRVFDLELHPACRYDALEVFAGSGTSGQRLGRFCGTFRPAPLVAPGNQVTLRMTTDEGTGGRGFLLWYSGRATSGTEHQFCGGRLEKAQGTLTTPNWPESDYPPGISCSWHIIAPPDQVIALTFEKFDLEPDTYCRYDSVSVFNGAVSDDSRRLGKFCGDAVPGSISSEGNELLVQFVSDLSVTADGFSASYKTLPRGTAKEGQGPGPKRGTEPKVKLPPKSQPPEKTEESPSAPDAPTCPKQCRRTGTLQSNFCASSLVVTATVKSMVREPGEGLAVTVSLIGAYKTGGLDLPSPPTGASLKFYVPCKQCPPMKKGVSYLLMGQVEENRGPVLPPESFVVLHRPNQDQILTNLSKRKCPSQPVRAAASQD
The experiment in a line: SPR competition: PCPE-1 (5 nM) co-injected with the mix on immobilized Mini III; mix of VHH-I5 and VHH-H4, 5 nM PCPE-1. On the procedure: (§1) Surface plasmon resonance (SPR) experiments were carried out on a Biacore T200 (Cytiva). The ligand proteins, in solution in 10 mM HEPES pH 7.4 buffer for PCPE-1 or 10 mM sodium acetate pH 4.5 buffer for mini-procollagen III and streptavidin, are immobilized on CM5 chips by amine coupling. Analytes are diluted in running buffer (10 mM HEPES pH 7.4, 0.15 M NaCl, 5 mM CaCl₂), 0.05% P20) and injected at a flow rate of 30 or 50 μL/min. Competition, epitope binning and kinetics experiments were all carried out at 25° C. Regeneration was achieved by successive injection of 2 M guanidine chloride and 0.5 M EDTA for 30 sec. Sensorgrams were analyzed with Biacore T200 Evaluation v3.2.1 (Cytiva), using the most suitable models. IC50 was determined by non-linear regression using GraphPad Prism (v8.2.1).
What is more, their antagonistic effects are additive, and co-injection of a mixture of VHH-I5 and VHH-H4 with PCPE-1 virtually eliminates its interaction with Mini III.

The target in experiment [2] is T1, PCPE-1 (Procollagen C-proteinase …). Briefly: SPR, D1 (0-250 nM) injected over immobilized PCPE-1, 1:1 binding model (Langmuir). The procedure: as §1
(§2) 21, produced in bacteria. The interaction of diab-D1 with PCPE-1 was assessed by SPR, by injecting increasing concentrations of diab-D1 onto immobilized PCPE-1.
In general terms: SPR reads the build-up and loss of mass on a sensor chip optically.

Experiment [3] shares this target. Briefly: SPR, increasing concentrations of D1 (0-250 nM) on immobilized PCPE-1, Langmuir model. The procedure:
as §1, §2

Experiment [4] has the same target. Briefly: SPR competition: PCPE-1 (5 nM) co-injected with D1 (0-200 nM) over immobilized mini-procollagen III; blocked ligand: Mini III. The procedure:
FIG. 4B: Inhibition of PCPE-1/mini-procollagen III interaction in the presence of D1: the interaction of PCPE-1 (5 nM) with immobilized mini-procollagen III is measured and compared with the interaction obtained when PCPE-1 (5 nM) is co-injected with increasing amounts (0-200 nM) of D1. The % residual PCPE-1 uptake is plotted as a function of D1 concentration.
as §1

For experiment [5] the target is unchanged. The experiment in a line: SPR competition: PCPE-1 (5 nM) co-injected with D1 (0-200 nM) on immobilized Mini III. The procedure:
as §1
Similarly, the addition of diab-D1 completely blocks the stimulation of CPIII-Long cleavage by PCPE-1 (FIG. 4C).

B1: mix of VHH-I5 and VHH-H4 (other)
VHH 1: MAQVQLVESGGGLVQPGGFLRLLCTASGNIFSSNTMGWYRRAPGKQREWVASISKGGSTNYADSVKDRFTISRSITKNTVYLQMVNLKPEDTAVYYCNPVPDSDNYASGQGTQVTVSS
VHH 2: MAEVQLQASGGGFVQPGGSLRLSCAASGFTSEISNMGWFRQAPGKEREFVSAISGTHTTQTYYADSVKGRFTISRDNSKNTVYLQMNSLRAEDTATYYCAAEQDMSDLWLGSYWGQGTQVTVSS
notes: Not one molecule: two separate nanobodies added together; the two chains are not linked; also called mixture of VHH-I5 and VHH-H4; VHH-I5 and VHH-H4 co-injected; not shown: C-terminal 6-His tag
What is called IC50 is the concentration needed to halve the response being measured. Take B1: the IC50 in experiment [1] is ~20 nM.

B2: bivalent nanobody VHH-H4-GS8-VHH-I5 (D1) (other)
chain: MAEVQLQASGGGFVQPGGSLRLSCAASGFTSEISNMGWFRQAPGKEREFVSAISGTHTTQTYYADSVKGRFTISRDNSKNTVYLQMNSLRAEDTATYYCAAEQDMSDLWLGSYWGQGTQVTVSSAAAGSGSGSGSGSGSGGSQVQLVESGGGLVQPGGFLRLLCTASGNIFSSNTMGWYRRAPGKQREWVASISKGGSTNYADSVKDRFTISRSITKNTVYLQMVNLKPEDTAVYYCNPVPDSDNYASGQGTQVTVSS
notes: Single polypeptide of two VHHs (H4, linker, I5), biparatopic for PCPE-1 (CUB1 and CUB2); produced in bacteria; also called diab-D1; diabody D1; not shown: C-terminal tag of the pET29b(+) construct (6-His for the synthetic nanobodies)
As usually defined, the koff is a measure of how fast the partners let go of each other. The kon is the second-order rate constant of association. A word on the Kd: it is the equilibrium constant for the complex coming apart. Regarding B2, in experiment [2], the koff is 0.000515 s⁻¹ and the kon came out at 1.6e+06 M⁻¹ s⁻¹. Besides, the dissociation constant (Kd) in experiment [3] worked out at 0.32 nM. In addition, the “IC50 (read off the curve)” value in experiment [4] is ~3 nM. Also, the 50% inhibitory concentration (IC50) in experiment [5] was ~3.5 nM.
